Data on one molecule can be found in doi:10.1101/2022.10.04.510906 (bioRxiv, 2022).

This experiment has as its target T1, V/A-ATPase D subunit (Thermus thermophilus, UniProt O87880 1-223).
T1 sequence: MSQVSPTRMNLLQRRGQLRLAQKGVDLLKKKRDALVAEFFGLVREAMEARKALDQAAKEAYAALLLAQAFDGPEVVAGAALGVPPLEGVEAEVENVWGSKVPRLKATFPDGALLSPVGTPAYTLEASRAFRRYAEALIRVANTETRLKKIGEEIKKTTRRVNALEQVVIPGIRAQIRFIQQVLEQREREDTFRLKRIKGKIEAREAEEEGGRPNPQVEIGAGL
Put plainly: cryo-EM structure.

B1: V/A-ATPase F subunit (natural protein, Thermus thermophilus)
chain: MAVIADPETAQGFRLAGLEGYGASSAEEAQSLLETLVERGGYALVAVDEALLPDPERAVERLMRGRDLPVLLPIAGLKEAFQGHDVEGYMRELVRKTIGFDIKL
On to B1, for which the binding result is recorded as “binds”.
